Results on 6 molecules are retold here after paper PMC6230950.

In test [1] the target is murine TB‐PIGS (Ag85B fused to a truncated mouse γ2a chain and the IgM μ tailpiece), produced in wil (M. tuberculosis | mouse | not stated) (UniProt P9WQP1). Kind of test: native gel or EMSA.
For test [2], the target named is Human TB-PIGS produced in wild-type Nicotiana benthamiana (Ag85B - truncated human γ1 chain - IgM tailpiece) (Mycobacterium tuberculosis | human | not stated) (UniProt P9WQP1). Kind of test: SPR; Biacore X100; protein A on a CM5 chip, IgG or TB-PIGS captured; human CD32a as analyte, 4000 nM to 125 nM in 2-fold dilutions; HBS-EP+; 40 uL/min, contact 90 s; steady-state affinity analysis. (In SPR one partner is held on a chip, and binding of the other changes the refractive index at the surface.)

Test [3] addresses Human TB-PIGS produced in glyco-engineered ΔXF Nicotiana benthamiana (Mycobacterium tuberculosis | human | not stated) (UniProt P9WQP1). The test is described as above.
Test [4] addresses human TB‐PIGS (Ag85B fused to a truncated human γ1 chain and the IgM μ tailpiece), produced in wild‐type N. benthamiana (M. tuberculosis | human | not stated) (UniProt P9WQP1). Briefly: native gel or EMSA. (In general: Mobility shift assays separate free from complexed probe on a gel.)
The target of test [5] is human TB‐PIGS:ΔXF (Ag85B fused to a truncated human γ1 chain and the IgM μ tailpiece), produced in g (M. tuberculosis | human | not stated) (UniProt P9WQP1). Kind of test: SPR; Biacore X100, HBS-EP+; TB-PIGS captured on protein A coupled to a CM5 chip; FcγR as analyte, 40 μL/min; affinity of one FcγR for a single arm.
The target in test [6] is Human TB-PIGS produced in wild-type Nicotiana benthamiana (Ag85B - truncated human γ1 chain - IgM tailpiece) (Mycobacterium tuberculosis | human | not stated) (UniProt P9WQP1). Kind of test: SPR; Biacore X100; protein A on a CM5 chip, IgG or TB-PIGS captured; five-six concentrations of human CD16a as analyte; HBS-EP+; 40 uL/min, contact 90 s, dissociation 300 s; two-state binding interaction model.

The target in test [7] is Murine TB-PIGS produced in wild-type Nicotiana benthamiana (Ag85B - truncated mouse γ2a chain - IgM tailpiece) (Mycobacterium tuberculosis | mouse | not stated) (UniProt P9WQP1). Kind of test: SPR; Biacore X100; protein A amine-coupled on a CM5 chip, IgG or TB-PIGS captured on it; CD64 (human or mouse) as analyte, 240 nM down to 1.875 nM in 1:2 dilutions; HBS-EP+; 40 uL/min, contact 135 s, dissociation 600 s; 1:1 model, but for human TB-PIGS from wild-type plants the 'Heterogeneous antibody with aglycosylation' model (two sets of values).

The target of test [8] is Murine TB-PIGS produced in glyco-engineered ΔXF Nicotiana benthamiana (Mycobacterium tuberculosis | mouse | not stated) (UniProt P9WQP1). Described as above.

In turn, “murine TB‐PIGS (Ag85B fused to a truncated mouse γ2a chain and the IgM μ tailpiece), produced in wil (from UniProt P9WQP1 41-325) (Fc fusion)” showed a percent of the sample as polymers in test [1] of 5 to 20%.
As for “human CD32a (FcγRIIa) (from UniProt P12318 34-217) (receptor)”, the equilibrium dissociation constant (Kd) (usually the constant that tells how readily two partners part at equilibrium) in test [2] worked out at 4210 nM; in test [3] it was 2160 nM.
For the molecule “human TB‐PIGS (Ag85B fused to a truncated human γ1 chain and the IgM μ tailpiece), produced in wild‐type N. benthamiana (from UniProt P9WQP1 41-325) (Fc fusion)”, the percent of the sample as polymers in test [4] is 35 to 60%.
“human CD16a (FcγRIIIa) (from UniProt P08637 17-208) (receptor)”: the results for the Kd in test [5] and in test [6] were 19.7 nM and 279 nM, respectively.
The molecule “human CD64 (FcγRI) (from UniProt P12314 16-292) (receptor)” registered a Kd in test [5] of 0.41 nM.

B1: mouse CD64 (FcγRI) (receptor)
chain: EVVNATKAVITLQPPWVSIFQKENVTLWCEGPHLPGDSSTQWFINGTAVQISTPSYSIPEASFQDSGEYRCQIGSSMPSDPVQLQIHNDWLLLQASRRVLTEGEPLALRCHGWKNKLVYNVVFYRNGKSFQFSSDSEVAILKTNLSHSGIYHCSGTGRHRYTSAGVSITVKELFTTPVLRASVSSPFPEGSLVTLNCETNLLLQRPGLQLHFSFYVGSKILEYRNTSSEYHIARAEREDAGFYWCEVATEDSSVLKRSPELELQVLGPQSSAP
As for B1, in test [7], the Kd is 50 nM, the koff (usually a measure of how fast the partners let go of each other) was 0.0248 s⁻¹ and the kon (commonly the second-order rate constant of association) stood at 500000 M⁻¹ s⁻¹. Moreover, in test [8], the Kd came to 16.8 nM, the koff came out at 0.0231 s⁻¹ and the on-rate (kon) worked out at 1.38e+06 M⁻¹ s⁻¹.
